T1: human Abl SH2 domain (human, UniProt P00519 112-232, limits assumed)
T1 construct: domain: SH2 domain; poly-histidine tagged in selection; tag cleaved for SPR and crystals; also called Ab1SH2; SH2 domain of Abl kinase
T1 sequence (looked up): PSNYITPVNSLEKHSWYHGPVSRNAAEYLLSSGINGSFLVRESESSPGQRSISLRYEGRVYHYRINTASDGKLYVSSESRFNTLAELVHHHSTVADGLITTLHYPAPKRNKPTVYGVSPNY


Biological target: T2, human serum albumin (human, UniProt P02768 25-609)
T2 construct: also called HSA
Experiment: cradle library selection hit

T2 sequence (P02768 25-609 limits assumed): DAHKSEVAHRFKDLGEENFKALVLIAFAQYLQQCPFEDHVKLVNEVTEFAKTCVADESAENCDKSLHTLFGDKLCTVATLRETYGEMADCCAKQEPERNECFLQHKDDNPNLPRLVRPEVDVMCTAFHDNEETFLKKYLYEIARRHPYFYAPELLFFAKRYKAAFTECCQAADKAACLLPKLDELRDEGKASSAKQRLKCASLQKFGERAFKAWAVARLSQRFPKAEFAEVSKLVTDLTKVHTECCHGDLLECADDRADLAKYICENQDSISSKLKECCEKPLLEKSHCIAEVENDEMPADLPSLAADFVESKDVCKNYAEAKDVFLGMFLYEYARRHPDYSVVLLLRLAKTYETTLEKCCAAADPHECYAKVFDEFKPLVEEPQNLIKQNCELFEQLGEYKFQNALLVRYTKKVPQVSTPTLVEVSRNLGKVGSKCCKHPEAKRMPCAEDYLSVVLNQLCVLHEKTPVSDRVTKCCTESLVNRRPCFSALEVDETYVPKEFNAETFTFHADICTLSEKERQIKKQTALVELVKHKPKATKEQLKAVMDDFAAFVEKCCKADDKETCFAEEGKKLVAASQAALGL

Binder | binding result
SEQ ID NO 275 (designed binder) NVSPPRRARVTDATETTITISWRTKTETITSFYVDAGPWYRPDAYEYIQRTIKPDVRSYTITGLQPGTGYSIQLYTLYAYAYLYPVVIDAST | binds
SEQ ID NO 260 (designed binder) NVSPPRRARVTDATETTITISWRTKTETITYFYVSAYPYYVAYDIQRTIKPDVRSYTITGLQPGTYYDINLSTLSYSDNSPVVIDAST | binds
SEQ ID NO 268 (designed binder) NVSPPRRARVTDATETTITISWRTKTETITYFYVYAKPRYINSIQRTIKPDVRSYTITGLQPGTDYSIYLDTLYWGGEYGPVVIDAST | binds
SEQ ID NO 251 (designed binder) NVSPPRRARVTDATETTITISWRTKTETITEFDVGADPGKGHAIQRTIKPDVRSYTITGLQPGTSYLIGLRTLNRVLHYPVVIDAST | binds
SEQ ID NO 269 (designed binder) NVSPPRRARVTDATETTITISWRTKTETITAFNVYASPEYWRYGYFRFIQRTIKPDVRSYTITGLQPGTGYYIYLYTLYHKYGYYPVVIDAST | binds
SEQ ID NO 263 (designed binder) NVSPPRRARVTDATETTITISWRTKTETITQFWVLAGPSVWTGRMSIQRTIKPDVRSYTITGLQPGTTYYIGLYTLQYYEYSPVVIDAST | binds
SEQ ID NO 252 (designed binder) NVSPPRRARVTDATETTITISWRTKTETITSFRVDAGPGVAGSIQRTIKPDVRSYTITGLQPGTYYQIQLAALAYGYYPVVIDAST | binds
SEQ ID NO 274 (designed binder) NVSPPRRARVTDATETTITISWRTKTETITGFHVFASPWYSGSQSIQRTIKPDVRSYTITGLQPGTTYYIGLNTLYIPGHEPPVVIDAST | binds
SEQ ID NO 261 (designed binder) NVSPPRRARVTDATETTITISWRTKTETITYFKVRAYPAYNYGGWSIQRTIKPDVRSYTITGLQPGTYYSIYLDTLYLGAYWYPVVIDAST | binds
SEQ ID NO 262 (designed binder) NVSPPRSARVTDATETTITISWRTKTETITYFVVGAFPAYSAHVDIQRTIKPDVRSYTITGLQPGTGYIINLETLINATGYPVVIDAST | binds
SEQ ID NO 264 (designed binder) NVSPPRRARVTDATETTITISWRTKTETITTFRVWARPYLYYWIQRTIKPDVRSYTITGLQPGTHYDIGLSTLSSTWYYPVVIDAST | binds
SEQ ID NO 258 (designed binder) NVSPPRRARVTDATETTITISWRTKTETITYFSVLAHPLEVSSYSIQRTIKPDVRSYTITGLQPGTGYRIFLSTLRWYYGMPVVIDAST | binds
SEQ ID NO 250 (designed binder) NVSPPRRARVTDATETTITISWRTKTETITQFSVYAYPARSKYHIQRTIKPDVRSYTITGLQPGTGYRIYLQTLGGYSDEPVVIDAST | binds
SEQ ID NO 249 (designed binder) NVSPPRRARVTDATETTITISWRTKTETITYFGVRAYPTYRSSIQRTIKPDVRSYTITGLQPGTLYRISLYTLDSAGYNPVVIDAST | binds
SEQ ID NO 248 (designed binder) NVSPPRRARVTDATETTITISWRTKTETITYFGVGADPAMYIEYPYIQRTIKPDVRSYTITGLQPGTQYGIYLTTLSQASDYPVVIDAST | binds
SEQ ID NO 253 (designed binder) NVSPPRRARVTDATETTITISWRTKTETITRFYVSAQPRFYYYNIQRTIKPDVRSYTITGLQPGTDYTIGLYTLGVYMHYPVVIDAST | binds
SEQ ID NO 266 (designed binder) NVSPPRRARVTDATETTITISWRTKTETITRFSVLAYPSKRTTYTPIQRTIKPDVRSYTITGLQPGTGYTIRLYTLSPYYWVYPVVIDAST | binds
SEQ ID NO 267 (designed binder) NVSPPRRARVTDATETTITISWRTKTETITWFYVSAFPLLVDGIQRTIKPDVRSYTITGLQPGTYYGINLYTLSSYPVVIDAST | binds
SEQ ID NO 259 (designed binder) NVSPPRRARVTDATETTITISWRTKTETITYFSVYANPMYPFYIQRTIKPDVRSYTITGLQPGTYYEIYLGTLYYFATYPVVIDAST | binds

The remaining lines, values ahead:

binding result | Binder
binds | SEQ ID NO 265 (designed binder) NVSPPRRARVTDATETTITISWRTKTETITYFHVNAQPSSPPWIQRTIKPDVRSYTITGLQPGTYYGISLYTLSWRGEYHPVVIDAST
binds | SEQ ID NO 256 (designed binder) NVSPPRRARVTDATETTITISWRTKTETITSFYVMAQPTNYYGQSTYIQRTIKPDVRSYTITGLQPGTYYGIQLYTLMYRASAPVVIDAST
binds | SEQ ID NO 246 (designed binder) NVSPPRRARVTDATETTITISWRTKTETITYFYVAADPTEDGKIQRTIKPDVRSYTITGLQPGTYYTIHLRTLYYLVAVPVVIDAST
binds | SEQ ID NO 277 (designed binder) NVSPPRRARVTDATETTITISWRTKTETITTFMVVAYPMFQYRIQRTIKPDVRSYTITGLQPGTSYTIYLQTLGYASWYPVVIDAST
binds | SEQ ID NO 270 (designed binder) NVSPPRRARVTDATETTITISWRTKTETITAFYVHAVPMLWVVNGIQRTIKPDVRSYTITGLQPGTSYTINLETLRMSSHYYPVVIDAST
binds | SEQ ID NO 276 (designed binder) NVSPPRRARVTDATETTITISWRTKTETITLFYVYAYPRYYPGIQRTIKPDVRSYTITGLQPGTSYSIYLSTLWDTKGYPVVIDAST
binds | SEQ ID NO 271 (designed binder) NVSPPRRARVTDATETTITISWRTKTETITSFYVRALPVSAWPIQRTIKPDVRSYTITGLQPGTGYNIGLVTLYYGASYVPVVIDAST
binds | SEQ ID NO 245 (designed binder) NVSPPRRARVTDATETTITISWRTKTETITDFGVVASPYLGQGIQRTIKPDVRSYTITGLQPGTAYSIKLHTLHVHDYYPVVIDAST
binds | SEQ ID NO 257 (designed binder) NVSPPRRARVTDATETTITISWRTKTETITTFDVYAYPGYGGSYWSIQRTIKPDVRSYTITGLQPGTSYEIELETLHYSHAYPVVIDAST
binds | SEQ ID NO 255 (designed binder) NVSPPRRARVTDATETTITISWRTKTETITEFFVMAEPYYGEGYYIQRTIKPDVRSYTITGLQPGTSYSINLYTLKRPYLYPVVIDAST
binds | SEQ ID NO 273 (designed binder) NVSPPRRARVTDATETTITISWRTKTETITSFWVHAYPSGASGGIQRTIKPDVRSYTITGLQPGTNYGIALATLTHYYTYSPVVIDAST
binds | SEQ ID NO 272 (designed binder) NVSPPRRARVTDATETTITISWRTKTETITAFYVGAHPWYNLEIQRTIKPDVRSYTITGLQPGTGYVISLYTLWHHNEAPVVIDAST
binds | SEQ ID NO 254 (designed binder) NVSPPRRARVTDATETTITISWRTKTETITYFSVEAYPRWYALIQRTIKPDVRSYTITGLQPGTSYYIYLWTLMMDTSSPVVIDAST

Biological target: T1, human Abl SH2 domain
Experiment: phage display selection hit, BL1 library

binding result | Binder
binds | SEQ ID NO 34 (designed binder) VSSVPTKLEVVAATPTSLLISWDAPAVTVHYYVITYGETGWWGPVQEFTVPGSKSTATISGLSPGVDYTITVYAYWKYSYKYSPISINYRT
binds | SEQ ID NO 43 (designed binder) VSSVPTKLEVVAATPTSLLISWDAPAVTVVHYHITYGETGGNSPVQEFTVPGSKSTATISGLSPGVDYTITVYADWQYSYMYSPISINYRT
binds | SEQ ID NO 40 (designed binder) VSSVPTKLEVVAATPTSLLISWDAPAVYHYVYLITYGETGGNSPVQEFTVPGSKSTATISGLSPGVDYTITVYAKWKYSYQYSPISINYRT
binds | SEQ ID NO 28 (designed binder) VSSVPTKLEVVAATPTSLLISWDAPAVTVDHYVITYGETGGYPSPVQTFTVPGSKSTATISGLSPGVDYTITVYAWDYDWYAIGSPISINYRT
binds | SEQ ID NO 29 (designed binder) VSSVPTKLEVVAATPTSLLISWDAPAVTVVYYVITYGETGGNSPVQEFTVPGSKSTATISGLSPGVDYTITVYAWYTFQYDYYVTQSSPISINYRT
binds | SEQ ID NO 33 (designed binder) VSSVPTKLEVVAATPTSLLISWDAPAVTVDYYYITYGETGGNSPVQEFTVPGSKSTATISGLSPGVDYTITVYAWYQHDFDYHVWGSSPISINYRT

From US20140057807A1 (UNIVERSITY OF CHICAGO, published 2014)
